Source: publication PMC7397735 (NAR Cancer, 2020)

Target: POLQ-FLAG (DNA polymerase θ) (human, UniProt O75417 1-2590)
Assay: co-IP

Chain of POLQ-FLAG (DNA polymerase θ) (O75417 whole entry): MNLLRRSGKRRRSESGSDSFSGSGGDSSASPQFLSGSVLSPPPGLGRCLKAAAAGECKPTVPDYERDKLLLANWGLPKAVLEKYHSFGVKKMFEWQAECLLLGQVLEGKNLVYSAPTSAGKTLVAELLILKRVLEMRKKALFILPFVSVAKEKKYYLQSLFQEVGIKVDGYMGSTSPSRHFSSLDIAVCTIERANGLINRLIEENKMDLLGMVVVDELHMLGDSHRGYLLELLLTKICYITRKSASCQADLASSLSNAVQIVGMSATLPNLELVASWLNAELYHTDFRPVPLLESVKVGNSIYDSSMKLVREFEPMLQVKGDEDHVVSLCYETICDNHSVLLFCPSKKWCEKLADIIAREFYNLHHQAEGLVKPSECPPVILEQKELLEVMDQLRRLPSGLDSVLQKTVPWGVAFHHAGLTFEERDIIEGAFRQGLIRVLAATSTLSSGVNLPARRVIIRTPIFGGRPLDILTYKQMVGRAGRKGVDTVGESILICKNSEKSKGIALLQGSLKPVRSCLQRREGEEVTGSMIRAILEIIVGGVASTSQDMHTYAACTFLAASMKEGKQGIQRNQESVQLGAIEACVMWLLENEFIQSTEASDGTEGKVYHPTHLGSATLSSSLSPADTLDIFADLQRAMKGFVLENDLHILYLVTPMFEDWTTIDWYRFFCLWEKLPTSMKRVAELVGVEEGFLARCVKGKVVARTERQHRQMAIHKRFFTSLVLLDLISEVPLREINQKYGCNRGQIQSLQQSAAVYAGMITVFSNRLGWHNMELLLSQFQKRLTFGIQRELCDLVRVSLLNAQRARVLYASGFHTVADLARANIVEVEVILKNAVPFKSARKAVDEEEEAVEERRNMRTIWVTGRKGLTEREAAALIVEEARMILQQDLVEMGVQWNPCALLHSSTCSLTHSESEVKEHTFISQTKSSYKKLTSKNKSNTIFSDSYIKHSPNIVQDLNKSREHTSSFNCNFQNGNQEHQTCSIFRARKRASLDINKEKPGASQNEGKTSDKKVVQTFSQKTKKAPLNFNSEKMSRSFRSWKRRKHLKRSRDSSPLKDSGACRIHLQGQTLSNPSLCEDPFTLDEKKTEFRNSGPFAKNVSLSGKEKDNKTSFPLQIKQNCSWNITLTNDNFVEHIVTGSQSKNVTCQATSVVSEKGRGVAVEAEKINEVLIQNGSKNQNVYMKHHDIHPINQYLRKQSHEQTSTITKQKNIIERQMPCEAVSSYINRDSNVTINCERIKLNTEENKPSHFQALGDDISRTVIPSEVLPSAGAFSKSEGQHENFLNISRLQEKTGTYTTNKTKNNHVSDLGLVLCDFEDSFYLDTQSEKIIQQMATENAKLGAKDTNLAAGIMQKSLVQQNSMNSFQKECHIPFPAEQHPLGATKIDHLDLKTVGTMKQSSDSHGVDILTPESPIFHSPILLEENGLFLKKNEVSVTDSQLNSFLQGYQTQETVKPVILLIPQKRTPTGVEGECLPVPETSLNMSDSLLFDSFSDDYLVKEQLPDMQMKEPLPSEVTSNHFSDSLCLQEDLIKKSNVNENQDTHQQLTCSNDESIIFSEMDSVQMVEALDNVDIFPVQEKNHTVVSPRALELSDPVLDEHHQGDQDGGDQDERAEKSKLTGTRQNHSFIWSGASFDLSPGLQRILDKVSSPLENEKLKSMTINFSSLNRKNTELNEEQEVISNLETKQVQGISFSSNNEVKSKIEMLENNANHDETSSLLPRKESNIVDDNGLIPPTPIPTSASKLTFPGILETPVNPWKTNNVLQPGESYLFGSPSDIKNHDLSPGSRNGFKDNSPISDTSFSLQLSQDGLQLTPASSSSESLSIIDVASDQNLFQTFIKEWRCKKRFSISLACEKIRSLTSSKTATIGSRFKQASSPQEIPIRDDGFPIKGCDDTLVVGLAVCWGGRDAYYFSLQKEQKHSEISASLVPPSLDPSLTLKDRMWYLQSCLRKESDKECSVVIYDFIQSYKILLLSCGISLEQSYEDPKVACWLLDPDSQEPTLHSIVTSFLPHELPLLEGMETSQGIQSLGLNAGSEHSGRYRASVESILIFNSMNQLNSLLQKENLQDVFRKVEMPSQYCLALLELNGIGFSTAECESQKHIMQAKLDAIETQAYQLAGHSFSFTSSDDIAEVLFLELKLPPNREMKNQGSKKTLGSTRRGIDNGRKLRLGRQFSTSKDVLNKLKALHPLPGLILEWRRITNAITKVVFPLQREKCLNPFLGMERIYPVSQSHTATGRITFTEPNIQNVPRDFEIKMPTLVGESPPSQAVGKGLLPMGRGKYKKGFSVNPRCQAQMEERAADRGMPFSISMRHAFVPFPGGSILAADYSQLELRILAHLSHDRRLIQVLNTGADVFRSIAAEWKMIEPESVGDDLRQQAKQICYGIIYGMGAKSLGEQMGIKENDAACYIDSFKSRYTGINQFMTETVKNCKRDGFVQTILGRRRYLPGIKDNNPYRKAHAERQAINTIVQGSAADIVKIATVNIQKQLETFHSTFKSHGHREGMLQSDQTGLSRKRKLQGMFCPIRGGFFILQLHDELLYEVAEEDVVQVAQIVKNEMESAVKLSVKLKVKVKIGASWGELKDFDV

B1: MRE11 (natural protein, human (endogenous in U2OS), UniProt P49959 1-708, looked up)
chain: MSTADALDDENTFKILVATDIHLGFMEKDAVRGNDTFVTLDEILRLAQENEVDFILLGGDLFHENKPSRKTLHTCLELLRKYCMGDRPVQFEILSDQSVNFGFSKFPWVNYQDGNLNISIPVFSIHGNHDDPTGADALCALDILSCAGFVNHFGRSMSVEKIDISPVLLQKGSTKIALYGLGSIPDERLYRMFVNKKVTMLRPKEDENSWFNLFVIHQNRSKHGSTNFIPEQFLDDFIDLVIWGHEHECKIAPTKNEQQLFYISQPGSSVVTSLSPGEAVKKHVGLLRIKGRKMNMHKIPLHTVRQFFMEDIVLANHPDIFNPDNPKVTQAIQSFCLEKIEEMLENAERERLGNSHQPEKPLVRLRVDYSGGFEPFSVLRFSQKFVDRVANPKDIIHFFRHREQKEKTGEEINFGKLITKPSEGTTLRVEDLVKQYFQTAEKNVQLSLLTERGMGEAVQEFVDKEEKDAIEELVKYQLEKTQRFLKERHIDALEDKIDEEVRRFRETRQKNTNEEDDEVREAMTRARALRSQSEESASAFSADDLMSIDLAEQMANDSDDSISAATNKGRGRGRGRRGGRGQNSASRGGSQRGRADTGLETSTRSRNSKTAVSASRNMSIIDAFKSTRQQPSRNVTTKNYSEVIEVDESDVEEDIFPTTSKTDQRWSSTSSSKIMSQSQVSKGVDFESSEDDDDDPFMNTSSLRRNRR
fold level in POLQ-FLAG IP, BRCA2-deficient over BRCA2-proficient cells: ~4 fold
